Tests used:
rat hippocampal neurons = assay: Ligand-induced growth cone collapse in hippocampal neurons; type: cell-based; settings: antibody A 0.1, 0.3, 1 μM; KYL peptide 10, 30, 100 μM
Description: Rat hippocampal neurons were prepared as described in Example 10 above. The cells were inoculated to a 96-well plate (Greiner Bio-One) coated with poly-L-lysine containing culture solution.
The growth cone collapse assay using the hippocampal neurons was conducted according to the following steps. The rat hippocampal neurons of culture day 2 inoculated to the 96-well dish (Greiner Bio-One) were treated with PBS (Wako Pure Chemical Industries), antibody A (0.1, 0.3, and 1 μM), or an EphA4 inhibitor KYL peptide (KYLPYWPVLSSL, 10, 30, and 100 μM, its synthesis was outsourced to Toray Research Center) for 15 minutes and then treated with goat anti-human Fcγ fragment IgG1 antibody (Jackson ImmunoResearch Laboratories)-preclustered mouse Ephrin A1-Fc chimera (R&D Systems, final concentration: 1 μg/mL) (ratio: 1:5) for 30 minutes. Then, the culture solution was removed, and 2% PFA (Wako Pure Chemical Industries)/4% sucrose (Wako Pure Chemical Industries)/PBS was added, and left standing for 20 minutes to fix the cells. The solution was removed, and the cells were washed with PBS three times, followed by the addition of 0.25% Triton X-100 (Wako Pure Chemical Industries)/PBS for cell penetration treatment for 15 minutes. […] Neurons forming growth cone were counted in 30 fields of view per sample to calculate the proportion of the number of neurons causing growth cone collapse.

[1] = system: EphA4 autophosphorylation induced by mouse Ephrin A1; assay: In vivo competition assay using mouse newborns (EphA4 autophosphorylation in cerebral hemisphere); settings: 8-day-old mouse, 300 mg/kg subcutaneous
Description: The in vivo competition assay using mouse newborns was conducted according to the following steps. PBS (Wako Pure Chemical Industries), antibody A, or a control antibody (mouse anti-dinitrophenol antibody) produced with a conventional procedure by immunizing […] with dinitrophenol was subcutaneously administered at a dose of 300 mg/kg (30 mL/kg) to each 8-day-old mouse (Charles River Laboratories Japan). After 24 hours, the scalp was incised under 4% isoflurane (Intervet) anesthesia, and mouse Ephrin A1-Fc chimera (300 pmol/head, R&D Systems) or PBS (Wako Pure Chemical Industries) was administered into the lateral ventricle. 1 hour thereafter, the mouse was euthanized by decapitation, followed by the extirpation of the cerebral hemisphere. […] 3×SDS sample buffer was added to a portion of the homogenate, which was then boiled for 10 minutes, followed by protein quantification. […] The remaining homogenate was subjected to protein quantification and then dispensed in an amount corresponding to 3 mg of protein, and 1% Triton X-100 (Wako Pure Chemical Industries) and 0.1% SDS (Nacalai Tesque) were added thereto. […] Western blotting using an anti-EphA4 monoclonal antibody (Abnova) was further performed, and band intensity was quantified to calculate a value of phosphorylated EphA4/total EphA4. […]

B1: antibody A: mouse anti-EphA4 monoclonal antibody, IgG1/κ; heavy chain variable region SEQ ID NO: 11, light chain variable region SEQ ID NO: 13 (antibody, listed as Mus musculus, V domains shown)
VH: QIQLVQSGPELKKPGETVKISCKASGYTFTDYSMHWVKQAPGKGLKWMGWINTETGEPTYADDFKGRFAFSLETSASTAYLQINNLKNEDTATYFCARIPLYYYGSRYWYFDVWGAGTTVTVSS
VL: DIQMTQSPASLSVSVGETVTITCRASENIYRNLAWYQQKQGKSPQLLVYAATNLADGVPSRFSGSGSGTQYSLKINSLQSEDFGSYYCQHFWGTPWTFGGGTKLEIK
- suppression of growth cone collapse induced by mouse Ephrin A1 (in words) (rat hippocampal neurons): suppressed, in a concentration-dependent manner
- suppression of mouse EphrinA1-induced EphA4 autophosphorylation [1]: 66%
